Data: the DeepSol protein solubility set

Test: soluble on expression in E. coli; label from the status in PepcDB or PDB records

Soluble on expression in E. coli, not soluble:
MGSDKIHHHHHHMTSQYKASRFATPRDMPEQTYRLSNVCLPAPLSMGELETFSAISRQVSPLRKRHTLFEQGEAFRSLYIVRCGSLKQVYRDITREEHVTQFYLPGEVVGLDALSSGFHPGATIALETTSVCEIGPESIEELAHGDRTERGVGGCFLRVMSRAMHQERMMVRLFLNRTSDVRLASFLLALSGRFRQQGYSPFCFRLSMSRSDIGNYLGLAVETVSRLLGRFQHLGLLTAKGREIRIDDLEALAALADGRSRHSIWDTADEAPERLASMSTH, MGSDKIHHHHHHMTSSSRIAVRELPLFPLPEVVLFPTRPLPLHIFEFRYRIMMNTILESDRRFGVLMVDPVKGTIANVGCCAEIIHYQRLPDDRMKMLTLGQQRFRVLEYVREKPYRVGLVEWLEDHPPAKDLRPLATDVEQLLRDVVRLSAKITEQNIEIPEELPDLPTELSYWVASNLYGVAGEQQSLLEMQDTAARLEREAEILTTTRNHLAARSVLKDTFNPKL, MGSDKIHHHHHHMTSSVASDLSSFVRFADIPPEFQPTDAHPIRVRSRLMPSGRRIARHTHAWAQVAYASRGVLRVATTGTTWMVPPSRAIWVPPHVTHEVVAVEDAFLRTLYITESTVPAGLDTPRVVEVSDLLREVIAALDTPGISATREQLLGALALDELTRSEPLPLSVPMPNEKRLRALCEAVIADPTHGESLEQWASSVGASTRTIARLFRQELGVSFSQWRQQAILARAIPLLSQGRPLSHVALELGYQSQSAFSAMFRRAFGESPRAFIERGSEHRVEDGERGDMETDNETAAQDRADVADVADVADDAGDAGDAGDTGDTGDTGDVGDVGDADDSEL, MGSDKIHHHHHHMTTINFLGGCREVGRSAVMVDGIMIDYGVKPSDPPEFPLNGLSPRAVILSHGHLDHIGVAPNLMYYDPEVILTPPSHELSMILLRDSMKIMHPPPFTKRELRQFESNIREVEYEEPITVGDYEVEFFNAGHIPGSASIHMRGDVNILYSGDIRLEETRLLEGANTDYPETDILIVESTYFGTEHPDRKELERAFVESVIDTLDMGGHAIIPAFAVGRTQEVLMILERYGITPYVDGMGKEVAQVIQRHPDFIRSPKELKRAVRNAIPVEWRQRERVLEEPSAVVTTAGMLNGGPAMFYISRLYNDEKSKILLTGYQVEGTNGDMALKTGMLNLGTRVVKLKMGVEQYDFSAHADDRQLKEYVKRVVDRGAEVVFTIHGEETEAFAEWIKDNIGVEAYAPKNGEIYVI, MGSDKIHHHHHHMTTLNSEKVFRDPILGFIHVDDSIILDLINSHEMQRLRRIKHLGVANSVFHGGEQSRFQHSLGVYEISRRMIQALDDNEKFANERHWDHENDLLVQAAALLHDVGHGAYSHTFEHLFDTVHEQFTQKIIVDPSTEVNAILKTVSNDFPERVAAVIGKSYPDKRVVQLISSQLDADRMDYLLRDAYYTGAEYGRYDIERILRLMRPIKDGFAFDIAGVHSIEDYVISRYQMYLQVYFHPVSRGMEVVLENLLIRAQDIFDKDPDNPIFFPIIRPIFALKNKIDIQDYISLDDSVFNTAFNIWQKVDDKILADLSKRFLDRKPLKSIVLNEKTKDLIPSLRKKIKDRGFDPKYYTGENDATDLPYESYSPKTGEEGIKFVYPDGQQVELSKLSPLVEAINGKESIDRRFFFPREMLSNPEINQLYLKYKKTY, MGSDKIHHHHHHMTTPSETSPSRMNSTQAWVSYLSKVELPVLANTLRQINELTDSRNSTVNELANVILNDAQLTSQVLRLSNTVFYNQTRTQVSTVSRAITLIGFDAVKSMAISSLIVDSLLKRNDRPHLLRCLARAIHAAVQARCLMPKRTEHALEEVFIGALLMNIGELAFWSCETEQASELEERLRLEEPPVEAQKAVLHTTFTEITRGLVDAWSLGPFIKEVVAPGKANSMASSLVRNSVEMARVSENGWSGAEMDKVLEKLSDDIGETPAAIRDQLKVNAQEASKVAVSLGIPQVTALLPGNQESVPDAPAMDSDLQLQILRELTQTLAEKPDINEVCQLVIEGIHRAIGMQRVALLMTDRSGELLVPRKVGGRGTEEWREHFVIKKDGTGPLGPLLPHGTCAVYEPRKQTEGVPYDRWLGKVPALAGSLKAKGRLVGLFYADNAAAGYVPSEQQLAAFGHFIQNAQLCLTLMSARG, MGSDKIHHHHHHMTVCIACGSTKVEPFLDLHETTLANKFLAPEEIGAVEPRHPLVVGFCPECSHVQLTHLVPPAAMFEDYLYISSLSKTLVGHLHGLAATVIERFKLGADDLFIDVGCNDGTLLSEAKRRGVRILGIDPAKNLAPLAKKNGVDTLVAFFGTETAAKVVAEHGKASVVTATNVFPHIPVLDDLVKGLDVVLKPGGVFVAEAHYLGDLLDACAFDTVYHEHCSYWSLHAAQYMFQRHGFEVVDIQRLPIHHGQLRLFAMRKGEGQPTAAVATLLAEEVKRGMTGIECYRAFAKRVEAIREELHAAFAGFKAAGKTVVGYGAPAKGNTLLSYIGFGPEQLAYIADKSPLKQGRVTPGTHIPVVGPERLLADQPDYVLLLAWNFADEILVEQAEYRARGGKFILPVPEVKIV, MGSDKIHHHHHHMTVIAVAGKGGTGKTLVSALLINFISEHTTSVLAVDADPDSNLPEALGVEKQVRKTLGEIRELFQVSRDEMGSMNKEQWLEGKIYAEAICECPRYDLLVMGRPEGEGCYCFANSLLRGVLKRLMRHYEYIIIDTEAGLEHFSRKTIDSADYIIIVTDMSRKGLATAKRIKELASELKLNFKKIFLIANRIASEDAEKTIREFAKEEGLELLAVLPYDSSVAEIDLRGEPVSKIDKNSEVYRKMKDVANLMLNLSAKAR, MGSDKIHHHHHHMTVLIKEEDFIQSIADGIQFISYYHPVDYIRHLARAYEREESPAARDAMAQILTNSRMCAEGKRPLCQDTGIVNVFLKVGMNVRFDTQRTLQELCDEGVRRGYLNPDNPLRASVLDDPLFARKNTRDNTPCILHVELVPGDTVDVQVASKGGGSENKSKFVMLNPSDSLVDWVLKTVPTMGAGWCPPGMLGIGVGGTAEKAMLMAKQSLMEDIDMYELLARGPQSKLEELRIELYEKVNALGIGAQGLGGLTTVLDVKISTFPTHAASKPVAMIPNCAATRHAHFVLDGSGPARLDPPSLSEWPEVHWAPDYNKSRQVDLDTLTKEEVASWKPGQTLLLSGKMLTGRDAAHKRIQDMLSKGESLPVDFTNRVIYYVGPVDPVRDEVVGPAGPTTATRMDKFTDMMLAQTGLISMIGKSERGPVAIESIRKHGSAYLMAVGGAAYLVSKAIRNAKVLAFEDLGMEAIYEFDVKDMPVTVAVDSQGTSVHTTGPKEWQARIGKIPVAVA, MGSDKIHHHHHHMTVRQIIQLAGTLDIPGLPQLDVTQDEISIANLTPLKLWAATAGWGASADDLGFEDRVTGNKIPLNGSATSSRLVNAFDGSQALSQGTAGAVLKDDSFSTAGSFTIAMNLCAINDELTCAPASSSVLPGSGQSYWFLASSAGKFRIGTTSLSTQFADYLGPLLSRTAWLRLILKYDRAVGTMTLYVNGVQQAKLTNDALKTLSLAPGLVMGGLVTTTATPTSPPCLMRSPMGFNSALSDSELALVDRYLSKTLY, MGSDKIHHHHHHMTVVRQTAAEQATATGRRRASFHTLTVAEVRRLTDDAIEVTFGVPAELAGQYDYLPGQYVALRTTMPDENGQPHEVRRSYSICAEPRSFADGSSEIRVAIKKDLGGLFSTWANAELKPGDQLDVMSPMGAFVSKHGRDGKAVEQNVMNSMNHPEDLVGEPGSFVAIAAGSGITPVIAIARTLLAANPETRFDLIYANKAAMDVMFLEELADLKDKYPSRLALHHVLSREQRIAPLLSGRIDAEKLQALLGTAIHADDVDEWFLCGPFELVQLCRDTLAARGVQPEHVRFELFTSGKPDRPEGNIGRPVIADESKDTYKITFKLDGLEGKVESPTHARESLLNAALRVRPDVPFACAGGVCGTCRAKVVTGAVTMDENYALEQDELDKGYVLTCQSHPTTPEVTVDFDV, MGSDKIHHHHHHMTYINAQGRLKGCKPIAVIDIGSNSVRLVIYEGLVRSPTVLFNEKILCGLGQGVAKTGLLEENSMNMALRTLKRFRALCLQIGADEIYILATAAAREAKNGLAFIQNAENILQNKIYLLSGSEEAVYSAYGVISTFYQPKGISGDLGGGSLELIDIDNSEVGEGITLPLGGLRLQYMSNNDIAVAAKIAQEQFGKSAVVHKSMARCFYAVGGTWRNLAKLHMATKHYRLPVMHGYEVDAVEMEDFLRFVVNGSIENMKGISAVSKNRRQLLSYGAIILIELIRCVGFEKIIFSGAGVREGFLYSRLPQEVRVSDPLIAACTEMAILRARSPKQAEELIDFTTNAFEVFGILETENECRYRKAACLLADIGWRIHPDYRGNEAANQIALGSYPGISHEGRAYAALAVFFRNTGSLIGEESLPIFQLASKDVIEKARILGEIMRIAHLFSASTTGVLPHLSWHKKIDHVVLHIPARYADLLGERPLSRLKKLSKIIELPLAFEIF, MGSDKIHHHHHHMVALTDPDLLFPPEAHSRSLARDLYAGIKDLPIVSPHGHTDPRWYALNEPFPDPAQLLIVPDHYIFRMLFSQGVRLEDLGVASLDGAPVETDGRTIWRRFAEHYYLFRGTPTRLWFDHVLAHLFGIEEPLDATTADRHYDTIATVLQWENFRPRALFERFNIEVIATTEGALDDLEWHKMIRDSGWEGRVVTAYRPDAVVDPDFEGFSANLDRLGEITGCDTGSWAGYLDAHRQRRAFFKSFGATSSDHGHPTAETANLSDAAAQELFNRIRRGSQDERERKLFRAQMLTEMAKMSRDDGLVLQIHPGSWRNHSPSVFQRFGRDKGFDIPTRTDYVTALKPLLDCVGLERDLTVILFTLDESSYARELAPLAGVYPALKLGPAWWFHDSPEGMRRFREMTTETAGFYNTVGFNDDTRAFPSIPARHDVARRVDCAFLARLVAEHRLREDEAHELARELAHTLAKKAYRL, MGSDKIHHHHHHMVATLAEQIKAEAIALGFDKVGIASVDPPDTEALAALDRWLAQGYQAEMDWMASDRRRDVRNLLPNAQSVICVALNYYSGDHPDPSPEVGKIARYAWGRDYHRVVEKRLKALARWLQTQQPDCECRWYVDSGPIADKVWAQRAGLGWIAKNSNVISREFGSWIFLGELVTTLALPADRPHTAHCGSCSRCLEACPTQAIVEPYVVDANRCIAYHTIENRAADLPAAIAQNLQGWVAGCDICQEVCPWNQRFAQITTLPDLQPRSELLAPALAELATLSEEAWDQQFQGSALRRIKPAMWRRNSRANLRQQSEGNRLS, MGSDKIHHHHHHMVATPNSSYISPEDYLKGEETSPIKHEYRQGQVYAMAGASNAHVIISLNIASMLRNHLRGSGCQAYISDTKVHIESINVYYYPDVTVSCDQRDRAFNNFLRYPCLIVEVLSPTTEAFDRGDKFADYRQMESLQEYVLISQTRLNVECFRRNPESQWVLYPYGKEDIIHLASVDFRCAVADFYEDVTFESL, MGSDKIHHHHHHMVDSLQKPELEELRPGIKAPAKETILTPRFYTTDFEAMAKMDLSPNEDELRAILEEFRADYNRKHFVRTPEFDGSAADMDPETKKVFVEFLEQSCTSEFSGFLLYKELSRRIKNRNPLLAECFELMARDEARHAGFLNKSMSDFDLQLDLGFLTANKKYTYFKPAYIFYATYLSEKIGYWRYITIFRHLEQHPEYRIYPIFKFFENWCQDENRHGDFFDALMKAQPSTVRGFVAKLWCRFFLLAVFATMYIRDVQRKEFYEALGLDAREYDRHVIAKTNETSARVFPVVLDVDHPKFYDRLETCIANNNQLAAIEATSAPKPVKVLRKLPYYLSNGLQLLKLYLVKPLESDVYQPAVR
